Experimental data from patent publication US20250276075A1, “METHODS OF TREATING AXL-EXPRESSING CANCERS WITH ANTI-AXL ANTIBODIES, ANTIBODY FRAGMENTS AND THEIR IMMUNOCONJUGATES” (BIOATLA, INC., priority 2020, published 2025).
Entries after “also recorded” stand apart in the source; their conditions may differ.

Legend:
human Axl = target: T1, human Axl (Homo sapiens, UniProt P30530); assay: BA3011 binding to human Axl in TME and normal tissue conditions
T1 sequence (P30530 26-894): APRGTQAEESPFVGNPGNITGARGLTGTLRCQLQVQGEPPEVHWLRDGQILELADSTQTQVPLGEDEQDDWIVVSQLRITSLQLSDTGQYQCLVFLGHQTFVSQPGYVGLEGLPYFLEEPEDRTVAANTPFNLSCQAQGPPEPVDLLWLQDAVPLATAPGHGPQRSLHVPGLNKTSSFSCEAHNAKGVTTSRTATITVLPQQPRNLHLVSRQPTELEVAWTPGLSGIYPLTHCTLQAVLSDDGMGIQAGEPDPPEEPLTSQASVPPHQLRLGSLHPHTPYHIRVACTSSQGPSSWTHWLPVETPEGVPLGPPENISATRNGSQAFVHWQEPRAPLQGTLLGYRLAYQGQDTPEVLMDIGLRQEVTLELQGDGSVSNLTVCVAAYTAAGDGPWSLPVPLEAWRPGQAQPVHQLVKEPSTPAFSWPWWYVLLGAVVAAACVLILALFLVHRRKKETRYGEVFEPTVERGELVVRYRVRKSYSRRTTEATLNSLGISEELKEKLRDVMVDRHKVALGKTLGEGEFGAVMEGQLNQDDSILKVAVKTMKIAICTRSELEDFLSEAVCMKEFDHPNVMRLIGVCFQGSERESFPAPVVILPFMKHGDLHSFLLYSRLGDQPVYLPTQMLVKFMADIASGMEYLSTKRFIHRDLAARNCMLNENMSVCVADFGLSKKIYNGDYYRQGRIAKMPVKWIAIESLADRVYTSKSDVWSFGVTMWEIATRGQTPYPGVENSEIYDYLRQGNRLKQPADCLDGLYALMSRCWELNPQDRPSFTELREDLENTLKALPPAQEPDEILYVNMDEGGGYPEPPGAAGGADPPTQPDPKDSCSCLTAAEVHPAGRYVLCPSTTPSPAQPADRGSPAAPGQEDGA

mouse Axl = target: T2, mouse Axl (Mus musculus, UniProt Q00993); assay: BA3011 binding to mouse Axl
T2 sequence (Q00993 19-888): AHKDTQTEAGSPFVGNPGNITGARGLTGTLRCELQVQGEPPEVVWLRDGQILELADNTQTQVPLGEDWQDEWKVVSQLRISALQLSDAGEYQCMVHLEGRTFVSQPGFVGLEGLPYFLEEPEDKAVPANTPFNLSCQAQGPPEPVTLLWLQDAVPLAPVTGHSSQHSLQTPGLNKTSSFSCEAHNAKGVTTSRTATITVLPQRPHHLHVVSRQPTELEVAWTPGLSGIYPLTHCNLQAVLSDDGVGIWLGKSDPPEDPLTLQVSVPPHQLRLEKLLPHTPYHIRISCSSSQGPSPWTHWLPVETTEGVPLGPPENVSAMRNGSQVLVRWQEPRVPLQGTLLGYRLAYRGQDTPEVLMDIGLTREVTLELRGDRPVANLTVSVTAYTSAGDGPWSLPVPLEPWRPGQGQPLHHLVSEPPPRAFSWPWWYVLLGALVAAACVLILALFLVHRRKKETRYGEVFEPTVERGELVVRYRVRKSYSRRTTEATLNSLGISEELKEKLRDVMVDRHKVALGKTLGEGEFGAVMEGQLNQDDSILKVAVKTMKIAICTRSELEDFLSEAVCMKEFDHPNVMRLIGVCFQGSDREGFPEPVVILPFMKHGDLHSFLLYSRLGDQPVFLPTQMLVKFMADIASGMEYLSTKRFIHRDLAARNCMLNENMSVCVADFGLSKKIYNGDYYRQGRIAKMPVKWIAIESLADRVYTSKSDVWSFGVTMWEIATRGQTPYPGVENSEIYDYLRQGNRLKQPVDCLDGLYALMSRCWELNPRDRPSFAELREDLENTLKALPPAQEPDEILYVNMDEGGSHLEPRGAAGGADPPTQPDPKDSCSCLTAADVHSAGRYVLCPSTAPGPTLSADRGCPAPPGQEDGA

[1] = BA3011 repeat dose intravenous toxicology study in monkey; type: in vivo, cynomolgus monkey
Protocol: The nonclinical intravenous (IV) toxicity of BA3011 was evaluated in the monkey in an initial dose-range finding study followed by a definitive Good Laboratory Practice repeat dose toxicology study. […] Many of the toxicities observed with BA3011 are similar to other ADCs conjugated to MMAE.
(§1) Based on the results at the 5 and 10 mg/kg/dose, the no-observed-adverse-effect-level (NOAEL) of BA3011 was considered to be 1 mg/kg/dose for both males and females. […] The highest non-severely toxic dose (HNSTD) was 5 mg/kg/dose, with C0 on Day 22 at 111 μg/mL and AUC0-inf at 2370 μg·h/mL.

cynomolgus monkey Axl = assay: BA3011 binding to cynomolgus monkey Axl
[2] = BA3011 plasma exposure in monkey toxicology study; type: in vivo, cynomolgus monkey
Protocol: as §1

[3] = conditions mimicking the TME (pH 6.0-7.0)
[4] = conditions mimicking the normal tissue environment (pH 7.3-7.4)

B1: Mecbotamab vedotin (conjugate, chains of the INN, looked up)
VH: EVQLVQSGAEVKKPGATVKISCKVSGYSFWGATMNWIRQPPGKGLEWIGLIKPSNGGTSYNQKFKGRVTISADKSISTAYLQWSSLKASDTAMYYCAHGHYESYEAMDYWGQGTLVTVSS
VL: DIQMTQSPSSLSASVGDRVTITCKASQDVVSAVAWYQQKPGQAPRLLIYWQDTRHTGVPSRFSGSGSGTEFTLTISSLQPDDFATYYCQEHFSPPLTFGQGTKVEIK
modifications: MC-vc-PAB-MMAE conjugate
Q: Which results are given for B1?
A: binding to human Axl (human Axl; [3]): high affinity and specificity; binding to human Axl (human Axl; [4]): reduced binding; binding to mouse Axl (mouse Axl): not mouse or rat Axl; also recorded: lacked binding to the rodent enzyme; pathological changes in lymphoid organs ([1]; 10 mg/kg/dose in males and 5 mg/kg/dose in females): adverse pathological changes in lymphoid organs; mortality ([1]; 10 mg/kg/dose, Days 1 and 22, IV slow bolus): early deaths in females; hematological changes ([1]; 5 and 10 mg/kg/dose in both sexes): adverse hematological changes; changes in body weight, electrocardiogram (ECG), ophthalmology, or urinalysis ([1]; any of the dose levels tested): No test article-related changes; highest non-severely toxic dose (HNSTD) ([1]; cynomolgus monkey, in vivo): 5 mg/kg/dose; cross-reactivity to the cynomolgus Axl protein (cynomolgus monkey Axl): cross-reacted; binding to cynomolgus monkey Axl (cynomolgus monkey Axl; [3]): high affinity and specificity; binding to cynomolgus monkey Axl (cynomolgus monkey Axl; [4]): reduced binding; area under the concentration versus time curve (AUC)0-inf ([2]; 1 mg/kg/dose, Day 22): 376 µg·h/mL; group mean maximum plasma exposure (C0) ([2]; 1 mg/kg/dose, Day 22): 20.0 µg/mL; AUC0-inf ([2]; 5 mg/kg/dose (HNSTD)): 2370 µg·h/mL; C0 ([2]; 5 mg/kg/dose (HNSTD), Day 22): 111 µg/mL
